Substitutions are numbered along the chain they refer to.
T1: human RANTES (human, UniProt P13501 24-91)
T1 construct: also called hRANTES
T1 sequence (looked up): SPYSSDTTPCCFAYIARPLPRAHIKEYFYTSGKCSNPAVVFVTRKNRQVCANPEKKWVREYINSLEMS

T2: recombinant human MCP-2 (human, UniProt P80075 24-99)
T2 construct: also called rhMCP-2
T2 sequence (looked up): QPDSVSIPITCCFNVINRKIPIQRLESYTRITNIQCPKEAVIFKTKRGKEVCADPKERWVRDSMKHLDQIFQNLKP

T3: human GRO/MGSA (human, UniProt P09341 35-107)
T3 construct: also called hGRO/MGSA; GRO-alpha
T3 sequence (looked up): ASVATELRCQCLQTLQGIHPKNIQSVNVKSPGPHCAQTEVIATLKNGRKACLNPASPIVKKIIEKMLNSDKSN

T4: human MIP-1-alpha (human, UniProt P10147 24-92, limits assumed)
T4 construct: also called hMIP-1-alpha
T4 sequence (looked up): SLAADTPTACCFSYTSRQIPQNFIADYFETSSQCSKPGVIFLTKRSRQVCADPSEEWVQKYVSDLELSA

B1: anti-MCP-1 mAb 3.16.1 (antibody, V domains shown)
VH: QVQLVQSGAEVKKPGASVKVSCKVSGYTLTDLSMHWVRQAPGKGLEWMGGFDPEDGETIYAQKFQGRVTMTEDTSSDTAYMELSSLRSEDTAVYYCATHEFWSGYFDYWGQGTLVTVSS
VL: DIVMTQSPDSLAVSLGERATINCKSSQSVLFSSNNKSYLTWYQQKPGQPPKLLIFWASIRESGVPDRISGSGSGTDLTLTISSLQAEDAAVYYCQQYYSSPWTFGQGTKVEIKR
B2: anti-MCP-1 mAb 4.7.1 (antibody, V domains shown)
VH: B1 VH with D31E, S76T, H99D, E100D
VL: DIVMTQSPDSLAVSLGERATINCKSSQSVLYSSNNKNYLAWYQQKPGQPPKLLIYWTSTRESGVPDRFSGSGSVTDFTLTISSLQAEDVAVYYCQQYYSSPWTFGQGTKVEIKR
B3: anti-MCP-1 mAb 4.5.1 (antibody, V domains shown)
VH: B1 VH with D31E, S76T, H99D, E100D
VL: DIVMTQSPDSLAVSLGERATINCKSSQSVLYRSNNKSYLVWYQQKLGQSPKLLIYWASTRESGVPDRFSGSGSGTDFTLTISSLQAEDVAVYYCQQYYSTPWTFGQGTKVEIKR
B4: anti-MCP-1 mAb 4.6.1 (antibody, V domains shown)
VH: B1 VH with D31E, S76T, H99D, E100D
VL: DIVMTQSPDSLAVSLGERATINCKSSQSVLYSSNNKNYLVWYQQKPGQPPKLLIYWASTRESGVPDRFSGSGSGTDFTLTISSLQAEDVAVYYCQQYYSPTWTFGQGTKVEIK
B5: anti-MCP-1 mAb 4.8.1 (antibody, V domains shown)
VH: B1 VH with D31E, S76T, S88T, A97T, H99D, E100D
VL: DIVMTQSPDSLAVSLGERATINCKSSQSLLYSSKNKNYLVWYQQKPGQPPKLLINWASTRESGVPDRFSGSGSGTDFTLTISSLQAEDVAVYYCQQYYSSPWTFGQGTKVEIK

The binders below were run against T5, human monocyte chemo-attractant protein-1 (MCP-1) (human, UniProt P13500 24-99) (assay: cell-based or functional assay).
T5 sequence (P13500 24-99): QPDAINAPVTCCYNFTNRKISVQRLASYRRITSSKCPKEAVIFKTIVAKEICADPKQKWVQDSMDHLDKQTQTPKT

Binder	IC50 Ca++ Flux	IC50 Chemotaxis
B1	0.16 µg/mL	0.4 µg/mL
B2	0.39 µg/mL	0.45 µg/mL
B3	0.27 µg/mL	0.75 µg/mL
B4	0.31 µg/mL	0.4 µg/mL
B5	0.22 µg/mL	0.29 µg/mL

What follows are binders tested against T5, human monocyte chemo-attractant … (assay: ELISA, hybridoma supernatant on coated MCP-1).
Method: Selection of candidate antibodies for ELISA. After 14 days of culture, hybridoma supernatants were screened for MCP-1-specific monoclonal antibodies. The ELISA plates (Fisher, Cat. No. 12-565-136) were coated with 50 μl/well of MCP-1 (2 μg/mL) in Coating Buffer (0.1 M Carbonate Buffer, pH 9.6, NaHCO₃8.4 g/L), then incubated at 4° C. overnight. After incubation, the plates were washed with Washing Buffer (0.05% Tween 20 in PBS) three times. 200 μl/well Blocking Buffer (0.5% BSA, 0.1% Tween 20, 0.01% Thimerosal in 1× PBS) were added and the plates incubated at room temperature for 1 hour. After incubation, the plates were washed with Washing Buffer three times. 50 μL/well of hybridoma supernatants, and positive and negative controls were added and the plates incubated at room temperature for 2 hours.
The positive control used throughout was XMG2 MCP-1 Group 1, footpad N160-7 and the negative control was XMG2 KLH Group 1, footpad L627-6. After incubation, the plates were washed three times with Washing Buffer. […] In the secondary screen, three sets of samples (positives in first screening) were screened, one set for hIgG detection, one set for hKappa detection, and one set for hlambda detection. After incubation, the plates were washed three times with Washing Buffer. 100 μL/well of TMB (BioFX Lab. Cat. #TMSK-0100-01) were added and the plates allowed to develop for about 10 minutes (until negative control wells barely started to show color), then 50 μL/well stop solution (TMB Stop Solution (BioFX Lab. Cat. #STPR-0100-01) were added and the plates read on an ELISA plate reader at wavelength 450 nm. The OD readings from the positive wells are presented in Table 9.

Binder	ELISA OD-MCP-1
B1	3.92 OD450
B2	3.84 OD450
B3	3.38 OD450
B4	3.51 OD450
B5	4 OD450

What follows are binders tested against T1, human RANTES (assay: ELISA, coated antigen).
Method: (§1) Determining cross-reactivity of anti-MCP-1 antibodies with other chemokines. ELISA plates (Fisher Cat. No. 12-565-136) were coated with 50 μl/well of MCP-1, MCP-2, MCP-3, MCP-4, RANTES, GRO-alpha, MIP-1 alpha, eotaxin, rat MCP-1 and mouse JE (2 μg/ml) in coating buffer (0.1 M carbonate buffer, pH 9.6, NaHCO₃ 8.4 g/L, then incubated at 4° C. overnight. After incubation, the plates were washed with washing buffer (0.05% Tween 20 in PBS) three times. 200 μL/well blocking buffer (0.5% BSA, 0.1% Tween 20, 0.01% Thimerosal in 1×PBS) were added and the plates incubated at room temperature for 1 hour. After incubation, the plates were washed with washing buffer three times. 50 μL/well of hybridoma supernatants, and positive and negative controls (positive control was anti-MCP-1 antibody purchased from R&D Sciences, and negative control was an antibody to Keyhole Limpet Hemocyanin produced at Abgenix) were added and the plates incubated at room temperature for 2 hours. After incubation, the plates were washed three times with washing buffer. […] After incubation, the plates were washed three times with washing buffer and 100 μL/well of TMB (BioFX Lab. Cat. #TMSK-0 100-01) was added and the plates allowed to develop for about 10 minutes.

Binder	ELISA OD
B1	0.042 OD450
B2	0.046 OD450
B3	0.049 OD450
B4	0.053 OD450
B5	0.044 OD450

The binders below were run against T2, recombinant human MCP-2 (assay: ELISA, coated antigen).
Method: as §1

Binder	ELISA OD
B1	0.049 OD450
B2	0.042 OD450
B3	0.042 OD450
B4	0.047 OD450
B5	0.041 OD450

What follows are binders tested against T6, human eotaxin (human, UniProt P51671 24-97) (assay: ELISA, coated antigen).
T6 construct: also called hEotaxin
T6 sequence (P51671 24-97 limits assumed): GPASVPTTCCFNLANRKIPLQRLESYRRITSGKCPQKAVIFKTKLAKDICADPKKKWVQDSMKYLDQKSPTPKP
Method: as §1

Binder	ELISA OD
B1	0.043 OD450
B2	0.042 OD450
B3	0.041 OD450
B4	0.049 OD450
B5	0.043 OD450

The binders below were run against T7, recombinant human MCP-4 (human, UniProt Q99616 24-98, limits assumed) (assay: ELISA, coated antigen).
T7 construct: also called rhMCP-4
T7 sequence (Q99616 24-98 limits assumed): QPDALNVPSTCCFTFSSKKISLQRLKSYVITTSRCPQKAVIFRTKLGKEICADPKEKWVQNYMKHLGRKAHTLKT
Method: as §1

Binder	ELISA OD
B1	0.043 OD450
B2	0.044 OD450
B3	0.046 OD450
B4	0.047 OD450
B5	0.039 OD450

Each binder was assayed against T3, human GRO/MGSA (assay: ELISA, coated antigen).
Method: as §1

Binder	ELISA OD
B1	0.043 OD450
B2	0.046 OD450
B3	0.045 OD450
B4	0.046 OD450
B5	0.042 OD450

These binders were tested against rat MCP-1 (rat, UniProt P14844 24-148) (assay: ELISA, coated antigen).
Sequence of rat MCP-1 (P14844 24-148 limits assumed): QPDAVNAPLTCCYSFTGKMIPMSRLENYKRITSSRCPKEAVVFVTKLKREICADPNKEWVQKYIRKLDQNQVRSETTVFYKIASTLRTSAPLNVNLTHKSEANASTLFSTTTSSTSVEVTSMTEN
Method: as §1

Binder	ELISA OD
B1	0.046 OD450
B2	0.062 OD450
B3	0.055 OD450
B4	0.05 OD450
B5	0.091 OD450

The binders below were run against T8, recombinant mouse JE/MCP-1 (mouse, UniProt P10148 24-148) (assay: ELISA, coated antigen).
T8 construct: also called rmJE/MCP-1
T8 sequence (P10148 24-148 limits assumed): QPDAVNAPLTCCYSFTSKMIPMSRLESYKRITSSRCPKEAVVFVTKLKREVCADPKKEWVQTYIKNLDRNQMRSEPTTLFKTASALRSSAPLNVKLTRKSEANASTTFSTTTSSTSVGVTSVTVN
Method: as §1

Binder	ELISA OD
B1	0.042 OD450
B2	0.042 OD450
B3	0.049 OD450
B4	0.049 OD450
B5	0.042 OD450

Each binder was assayed against T5, human monocyte chemo-attractant … (assay: ELISA, coated antigen).
Method: as §1

Binder	ELISA OD
B1	0.633 OD450
B2	0.744 OD450
B3	0.957 OD450
B4	0.686 OD450
B5	1.14 OD450

What follows are binders tested against T9, recombinant human MCP-3 (human, UniProt P80098 24-99) (assay: ELISA, coated antigen).
T9 construct: also called rhMCP-3
T9 sequence (P80098 24-99 limits assumed): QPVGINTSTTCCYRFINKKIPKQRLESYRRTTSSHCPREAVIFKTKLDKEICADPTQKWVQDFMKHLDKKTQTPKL
Method: as §1

Binder	ELISA OD
B1	0.043 OD450
B2	0.046 OD450
B3	0.046 OD450
B4	0.05 OD450
B5	0.043 OD450

These binders were tested against T4, human MIP-1-alpha (assay: ELISA, coated antigen).
Method: as §1

Binder	ELISA OD
B1	0.043 OD450
B2	0.046 OD450
B3	0.046 OD450
B4	0.055 OD450
B5	0.041 OD450
